# According to publication PMC9191617 (Glycobiology, 2022):
# B1: CML1 (C. cinerea Mucin-binding Lectin 1), recombinant untagged (natural protein, Coprinopsis cinerea, UniProt B3VS76 1-127, looked up)
# chain: MAIFHTGSELFIITRGPGKLTLLTWGGLNNLRSVIGAIPTENTGVTKWAVSFSHNYTRFSFIWEGQGEACYQIGNGLTRSPVGRSWSSSSTIHWGSSTVITEDVTSVVPGAVNRDKVTTAYALPDNL
# Target: the molecule itself
# Assay: crystal structure
protein,measurement,value
B1,stoichiometry N,6
